In US11857697B2, “Compositions and methods for obtaining 3-dimensional lung-like epithelium and related uses thereof” (THE REGENTS OF THE UNIVERSITY OF MICHIGAN, priority 2017, dated 2024):
Entries after “also recorded” stand apart in the source; their conditions may differ.

What was measured:
Type in all cases: cell-based
[1] = system: E13.5 mouse lung buds; assay: Marker expression (QRT-PCR, immunostaining) in cultured mouse lung buds
Method: (§1) RNA was extracted using the MagMAX-96 Total RNA Isolation System (Life Technologies). RNA quality and concentration was determined on a Nanodrop 2000 spectrophotometer (Thermo Scientific). 100 ng of RNA was used to generate a cDNA library using the SuperScript VILO cDNA master mix kit (Invitrogen) according to manufacturer's instructions. qRT-PCR analysis was conducted using Quantitect SYBR Green Master Mix (Qiagen) on a Step One Plus Real-Time PCR system (Life Technologies). Expression was calculated as a change relative to GAPDH expression using arbitrary units, which were calculated by the following equation: [2^(GAPDH Ct−Gene Ct)]×10,000. A Ct value of 40 or greater was considered not detectable. A list of primer sequences used can be found in Table 1.
(§2) Mouse bud, human bud, and HLO tissue was fixed in 4% Paraformaldehyde (Sigma) for 2 hours and rinsed in PBS overnight. Tissue was dehydrated in an alcohol series, with 30 minutes each in 25%, 50%, 75% Methanol:PBS/0.05% Tween-20, followed by 100% Methanol, and then 100% Ethanol. Tissue was processed into paraffin using an automated tissue processor (Leica ASP300). Paraffin blocks were sectioned 5-7 uM thick, and immunohistochemical staining was performed as previously described (Spence et al., 2009). A list of antibodies, antibody information and concentrations used can be found in Table 2. PAS Alcian blue staining was performed using the Newcomer supply Alcian Blue/PAS Stain kit (Newcomer Supply, Inc.) according to manufacturer's instructions.
For whole mount staining tissue was placed in a 1.5 mL eppendorf tube and fixed in 4% paraformaldehyde (Sigma) for 30 minutes. Tissue was then washed with PBS/0.05% Tween-20 (Sigma) for 5 hours, followed by a 2.5-hour incubation with blocking serum (PBS-Tween-20 plus 5% normal donkey serum). Primary antibodies were added to blocking serum and tissue was incubated for at least 24 hours at 4 degrees Celsius. Tissue was then washed for 5 hours with several changes of fresh PBS-Tween-20. Secondary antibodies were added to fresh blocking solution and tissue was incubated for 12-24 hours, followed by 5 hours of PBS-Tween-20 washes. Tissue was then dehydrated to 100% methanol and carefully moved to the center of a single-well EISCO concave microscope slide (ThermoFisher Cat#S99368) using a glass transfer pipette. 5-7 drops of Murray's clear ([…] [Sigma]) were added to the center of the slide, and slides were coverslipped and sealed with clear nail polish.

[2] = system: 12 week human fetal distal epithelial lung buds; assay: Isolated human fetal lung bud culture in Matrigel: growth/expansion; details: FGF7 alone, 2, 4 and 6 weeks in culture
From the text: All research utilizing human fetal tissue was approved by the University of Michigan institutional review board. Normal human fetal lungs were obtained from the University of Washington Laboratory of Developmental Biology, and epithelial lung buds were dissected as described below. All experiments were repeated using tissues from 3 individual lungs; 84 day post fertilization of unknown gender, 87 day post fertilization male, and 87 day post fertilization of unknown gender. All tissues were shipped in Belzer's solution at 4 degrees Celsius and were processed and in culture within 24 hours of isolation.
Isolated mouse buds were cultured in 4-6 μl droplets of matrigel, covered with media, and kept at 37 degrees Celsius with 5% Carbon Dioxide. Isolated human fetal lung buds were cultured in 25-50 μl droplets of matrigel, covered with media, and kept at 37 degrees Celsius with 5% Carbon Dioxide.
Distal regions of 12 week fetal lungs were cut into ˜2 mm sections and incubated with dispase, 100% FBS and then 10% FBS as described above, and moved to a sterile petri dish. Mesenchyme was removed by repeated pipetting of distal lung pieces after dispase treatment. Buds were washed with DMEM until mesenchymal cells were no longer visible in the media. Buds were then moved to a 1.5 mL eppendorf tube containing 200 uL of Matrigel, mixed using a p200 pipette, and plated in ˜20 uL droplets in a 24 well tissue culture plate. Plates were placed at 37 degrees Celsius with 5% CO2 for 20 minutes while droplets solidified. 500 uL of media was added to each well containing a droplet. Media was changed every 2-3 days.
All mouse bud, human fetal bud, and hPSC-derived human lung organoids were grown in low-serum basal media (basal media) with added growth factors. […]

[3] = system: human fetal lung buds; assay: Marker expression (QRT-PCR, immunostaining) in cultured human fetal lung buds
Method: as §1
as §2, with “PAS Alcian blue staining was performed using the Newcomer supply Alcian Blue/PAS Stain kit (Newcomer Supply, Inc.) according to manufacturer's instructions.” left out

B1: Recombinant Human Fibroblast Growth Factor 7 (protein, UniProt P21781 32-194, looked up)
Fibroblast growth factor 7: CNDMTPEQMATNVNCSSPERHTRSYDYMEGGDIRVRRLFCRTQWYLRIDKRGKVKGTQEMKNNYNIMEIRTVAVGIVAIKGVESEFYLAMNKEGKLYAKKECNEDCNFKELILENHYNTYASAKWTHNGGEMFVALNQKGIPVRGKKTKKEQKTAHFLPMAIT
notes: Recombinant human growth factor from R&D systems, used at 10 ng/mL unless otherwise noted
Scgb1a1 expression after switch to FGF7 only (QRT-PCR) ([1]; 5 days 4F media then 4 days FGF7 only, versus 4F): increased
SOX9 protein and mRNA expression after switch to FGF7 only ([1]; 5 days 4F media then 4 days FGF7 only, versus 4F throughout): reduction of SOX9 protein and mRNA expression
Sox9 expression over time in culture (QRT-PCR) ([1]; FGF7 culture, compared to day 0): significantly reduced after 3 days in culture
Expression of mature alveolar markers Aqp5 and Sftpb over time (QRT-PCR) ([1]; FGF7 culture, length of time in culture): significant increases
Growth of human fetal lung buds in vitro [2]: robust growth in vitro after 2 and 4 weeks, but resulted in reduced growth after 6 weeks; also recorded: supported an initial expansion of buds, but the tissue stopped expanding beyond the 4 week period
Expression of proximal airway markers P63 and SCGB1A1 (QRT-PCR) ([3]; 4 weeks in culture, compared to 14 week old human fetal lung): significantly increased expression
SOX9 and SOX2 immunostaining ([3]; sections and wholemount, 4 weeks in vitro): expressed both markers, but strong cytoplasmic SOX9 localization was observed
